From the DeepSol protein solubility set

Experiment: soluble on expression in E. coli; label from the status in PepcDB or PDB records

Row | Sequence | soluble on expression in E. coli
1 | NDNSPRFEKSVYEADLAENSAPGTPILQLRAADLDVGVNGQIEYVFGAATESVRRLLRLDETSGWLSVLHRIDREEVNQLRFTVMARDRGQPPKTDKATVVLNIKDENDNVP | soluble
2 | MGSDKIHHHHHHAELAELFEVSVRTIYRDIETINRAGIPIVTSQGSGGGIGIMETYRLEREWLKEEELFAIASALQSVSSMYEPVSHSTAYQKIKHLIPEQSTQAFKHQTEKWFIDMTAWGHTEDQKTLREKISAAIDRLLTISFTYTSASGETLLRETEPYTLVCKAGHWYLYAYCLVRNDFRFFKLNRMKDLAILHQTFIRKDIQLDTLPWDKSWYQKDRLTELVILVQPSARQRIGEWFGYDVLHCCEEDEICQAVISLPEDQWLIGFLLQFGKDIEVLQPLHIRDKVKETIHHMQKIYET | not soluble
3 | MLARTIQRFSVVAKRGYAAAAPAANANPEELRLTFASPDTAVFSNAVVKQVDVPTLAGMVGVLANHVPTIGVLKPGVVSVTTNEGTVQRLFVSSGTLSVNIDGSCQVLAEEVLKVEEIDESAARAELDAAQRASGEGSEVARAEAQIRAEVAEALIKAATNQQ | not soluble
4 | MTSYEEETDYRNVPRELLDNNIPMGRGMIKWAPFATLPEQFETIQQYIIDQNKITRPVLSDDQLAELNIRLHEALQYAQPVEVKFYNNGFVDSVRLTIYRIDAINYEIDGYVYNQQQRQKISIFDILDIVLLP | not soluble
5 | MASPDEDNPGILYNGRFDFSDPNGPKCAWSGSNVELNFYGTEASVTIKSGGENWFQAIVDGNPLPPFSVNATTSTVKLVSGLAEGAHHLVLWKRTEASLGEVQFLGFDFGSGKLLAAPKPLERKIEFIGDSITCAYGNEGTSKEQSFTPKNENSYMSYAAITARNLNASANMIAWSGIGLTMNYGGAPGPLIMDRYPYTLPYSGVRWDFSKYVPQVVVINLGTNDFSTSFADKTKFVTAYKNLISEVRRNYPDAHIFCCVGPMLWGTGLDLCRSYVTEVVNDCNRSGDLKVYFVEFPQQDGSTGYGEDWHPSIATHQLMAERLTAEIKNKLGWLEHHHHHH | soluble
6 | MSNPYPKQEVTLMLHTANPVIKHKAGLLNLAEELSNVSKACKIMGVSRDTFYRYRELVAEGGVDAQINRSRRAPNLKNRTDEATEQAVVDYAVAFPTHGQHRASNELRKQGVFISDSGVRSVWLLHNLENLKRRYLEHHHHHH | not soluble
7 | MGSDKIHHHHHHMGIPKRKLGERGPEVSAIGLGCMRMSFGQKKLPDRKEMIKLIRTAVELGINFFDTAEVYGPYTNEELVGEALEPFKGEVVIATKFGFELYEDGRPGWKGLNSNPEHIKKAVEGSLRRLRVEAIDILYQHRVDPNVPIEEVAGAVKELIEEGKVKHFGLCEASAETIRRAHKVCPVDVVQYEYSMWWRKPEEELLPTCEELGIGFVAYSPLGKGFLTGAIGENSKFDEEDSRSRIPRFQKENLRENLALVELRKTIAERKGATPSQIALAWLLAQKPWIVPIPGTTKLSHLLENIGGAFVELTPEELQEINDALSRIEIKGSRYPEDMEKMTYL | not soluble
8 | GSKKHSVLHLVPVNITSKADSDVTEVMWQPVLRRGRGLEAQGDIVRVWDTGIYLLYSQVLFHDVTFTMGQVVSREGQGRRETLFRCIRSMPSDPDRAYNSCYSAGVFHLHQGDIITVKIPRANAKLSLSPHGTFLGFVKL | soluble
9 | MKVGNQMNEEQLSKRLEKVASYITKNERIADIGSDHAYLPCFAVKNQTASFAIAGEVVDGPFQSAQKQVRSSGLTEQIDVRKGNGLAVIEKKDAIDTIVIAGMGGTLIRTILEEGAAKLAGVTKLILQPNIAAWQLREWSEQNNWLITSEAILREDNKVYEIMVLAPSEKPVTWTKQEIFFGPCLLKEQSAIFKSKWRHEANTWQNIIQTISNNQPVSTENQAKIRELEHKIALVEDVLK | not soluble
10 | MSLESLFQHIIFTEHQAEESRRLMREVRSEITRCREKIKKATEELNEEKIKLESKVQQFFEKSFFLQLLKAHENALEKQYSEITNHRNMLLQTFEAIKKQMIEEEDKFIKEITDFNNDYEITKKRELLMKENVKIEISDLENQANMLKSEMKSMEHDSSQLNELQKQKSELIQELFTLQRKLKVFEDEENESICTTKYLEAEKIKISEKPQNDTECLRLKKELELYKEDDMESVYEALQTEIEFLELTLAQKDLQESK | not soluble
11 | MDLQSTPLKGVVRSSEDGLFYLFPIQSLSTLQEMKGHLTCAIDVLSNPDESDVEKRLDAVRTLNSLVAALSVNDGDHYDVIDTAFEEIRE | not soluble
12 | MSLIKLFLLKLYWAHFSTKQIHQFLMAYPNVIKEEGRKKDSYLCEWVNREENVHLLRKYYAFIKLDHNDIIKELQKLKVSYITYMDSEYPVLLKEIYQFPLLLFYKGNIKLINNMHHLAVVGARDSTSYTQQSLEFLLSNDKSKYLTIVSGLAQGADAMAHQIALKYNLPTIAVLAFGHQTHYPKSTLALRNKIEEKGLVISEYPPHTPIAKYRFPERNRIISGLSKGVLITEAKEQSGSHITIDFALEQNRNVYVLPGSMFNPMTKGNLLRIQEGAKVVLNANDIFEDYYIEGHHHHHH | soluble
13 | MPSKLALIQELPDRIQTAVEAAMGMSYQDAPNNVRRDLDNLHACLNKAKLTVSRMVTSLLEKPSVVAYLEGKA | soluble
14 | LETSWIKPGQASWEWWNDAAPYGPDVNFVSGYNLETYKYYIDFASKYGIRYIIMDEGWAKSTRDPYTPNAKVDVHELIRYAEKKNVGIVLWLTWLTVENNMDLFKTFSEWGVKGVKIDFMDRSDQWMMNFYERVAAEAAKYKLFVDFHGSVSPKGLEYKYPNVLSYEGVRGMEQMGGATPDNSIFMPFMRNAVGAMD | not soluble
15 | MAKQPTVLWAQRESLVYLTIEVDEAKIEELKGEGNKLHFQGSSKTDKYEATLEFFDEIDPASVKHTGSSTRVVEITVQKKTPAWWPRLLQNKGKVHWLKVDFGKWKDEDEDDEAEDAGAGIGGGMANGFDLNQYMSQMGGAGGADFGGLEDDEEDDDMPDLEDNEEEEGKNGTRA | not soluble
16 | MAGDPMQQSDVISAAKKYMESIHQNDYTGHDIAHVYRVTALAKSIAENEGVNDTLVIELACLLHDTVDEKVVDANKQYVELKSFLSSLSLSTEDQEHILFIINNMSYRNGKNDHVTLSLEGQIVRDADRLDAIGAIGVARTFQFAGHFGEPMWTEHMSLDKINDDLVEQLPPSAIKHFFEKLLKLESLMHTDTAKMIAKERHDFMMMYLKQFFTEWNYHDLEHHHHHH | soluble
17 | GSEDINRNPLLPTKEDEKMDGVIYGAYLPNLEKSVIPIGTASESTEPVNRYQIGVNLAGDAWAGYMSPRDNKFNGSKNFTNYFMYENWVNYVYSFMVTDVYSPWMQIKRISQDEGTRNDEIYALAQIIKIAALHRTTDMFGPIPYSQVGKGSFKVAYDSQESVYRSFLKELEEAVQTLDDYSNKSKEVLPAFDIVYNGDVNKWMRFANSLMLRLAIRVRFADAGLAKEYAEKAVKHPAGLINSKELAAQMGKGAGLQMKNPLKVINEEYNDTRMGATIYSYLAGYNDARAAVYFVKNNGFKAVRCGIAKSGDAYNGFTRPNVHEDDPLYWMKASEVCFLKAEGALAGFDMGGSAGDFYNAGIRMSFSENGLDNSSAETYLKDSTRKPANYTDTSNGELSANAPSSITIRWENGATEEEKLERIITQKYLAIFPNGQEAWTEWRRTGYPRQIVVAENKTNSAVLIGNGYDLGGVRRLPYPRTEYEQNGENLHNAISQYLGGVDNAATKVWWDKKSK | soluble
18 | MNKETLQLFRTLTELQGASGFEHDVRRFMKQELSKYADEIVQDGLGSVFGLKKGDETGPRVLVAGHMDEVGFMVTQITKNGMLRFQTLGGWWSQVLLAQRVQVMTKNGPVIGVVGSIPPHLLSDAQRAKPMDIKNMLIDIGADSYEDAIEIGVKPGQQIVPICPFTPMANEKKIMAKAWDNRYGCGLAIELLKELKDETLPNTLYSGATVQEEVGLRGAQTAANMIQPDIFYALDASPANDASGDKTQFGQLGKGALLRIYDRTMVTHRGIREFILDTAETNNIPYQYFISQGGTDAGRVHTSNSGIPSAVIGVCARYVHTHASILHVDDYAAAKELITKLVRTTDKTTLETIKNNA | not soluble
19 | MFGNLQGKFIIATPEMDDEYFDRTVIYICEHNDNGTIGVIINTPTDLSVLELLTRMDFQMAKPRIYTQDQMVLNGGPVNQDRGFIVHSKTDHEFTHSYKVTDDITLTTSGDVLDSFGTQTAPEKFIVCLGCSTWKPHQLEQEIAQNYWLLSEANNQTLFETSYLDRWVEANEMLGISGILAPAGRALEHHHHHH | soluble
20 | AVSLDRTRAVFDGSEKSMTLDISNDNKQLPYLAQAWIENENQEKIITGPVIATPPVQRLEPGAKSMVRLSTTPDISKLPQDRESLFYFNLREIPPRSEKANVLQIALQTKIKLFYRPAAIKTRPNEVWQDQLILNKVSGGYRIENPTPYYVTVIGLGGSEKQAEEGEFETVMLSPRSEQTVKSANYNTPYLSYINDYGGRPVLSFICNGSRCSVKKEKHHHHHH | soluble
21 | INLPWYLSPIAIPVTQILSAVSPLPRYAPGHKPYFPKPFEDNPLSQSAGRYQWFRNLYTEKPELQVGGPSTRWVWQGLMAAKQCFLLTRQVKVPVLLVQAGNDRIVSNLAQKRFIEKLRKTNPHAALLSIEGAQHEILFETDQYRNQALDAIFRFMDDPTSSSDEKMQ | not soluble
22 | MSLDKNDVVKKILESKKYENLDSDIVEKVVSISEKKYKLKEVENYSKKKLHQIWGSYYSAYPNWDKLLKKYNQGQLSIEDLLKIHSSTNERVATLNDFYTYVFGNIKHVSSILDFGCGFNPLALYQWNENEKIIYHAYDIDRAEIAFLSSIIGKLKTTIKYRFLNKESDVYKGTYDVVFLLKMLPVLKQQDVNILDFLQLFHTQNFVISFPIKSLSGKEKGMEENYQLWFESFTKGWIKILDSKVIGNELVYITSGFQKEGHHHHHH | soluble
23 | QGDLLLAQYTRAYGYYNPAYAGMRKEIFITALHNRQWEGMPRSPKSFVVLADAPIRFFDREHGVGVRVVTETRGLFAINELMGQYAFKQKLFGGDLSVALQAGLVNTAFDGTKVELETENDPAIPLTKVSGKAFDIGAGIYYRRKE | not soluble
24 | VSQLLPSDFNLRYPANSTSIVPISDLSITQIEADPNDSTIAVLTIQVIIRVNSFNNSLNFGIATYTQKIPGFLNQDSGRIALGFRDLALNANDLIIFNGIKGDTGVDAAIQSGKDNFTINSPIGFENIIFSIQDFDSTSTNASRGELGFVIKGEFNGQILLSSTINQKIVVSEFLAENLAILNAATEFGVILKPEFNLNSNRPTASQASKDNFSINFSQAPDPR | soluble
25 | SNAMANTSSDWAGAPQNASADGEFVRDTNYIDDRIVADVPAGSEPIAQEDGTFHWPVEAGRYRLVAARACPWAHRTVITRRLLGLENVISLGLTGPTHDVRSWTFDLDPNHLDPVLQIPRLQDAYFNRFPDYPRGITVPALVEESSKKVVTNDYPSITIDFNLEWKQFHREGAPNLYPAELREEMAPVMKRIFTEVNNGVYRTGFAGSQEAHNEAYKRLWVALDWLEDRLSTRRYLMGDHITEADIRLYPTLVRFDAVYHGHFKCGRNKITEMPNLWGYLRDLFQTPGFGDTTDFTEIKQHYYITHAEINPTRIVPVGPDLSGFATPHGREKLGGSPFAEGVTLPGPIPAGEEVKNPEPFQK | soluble
26 | MAMPEIDALLGLSFCLYFFDNKQHKLPHIHVKYGSYELIIAIETGECLEGYLPNKQRKRAENHILEHREQLMVMWNKAVNGENPGKLGDLCLEHHHHHH | not soluble
